Laboratory results taken from article PMC7031854.
One block for each substance: values may come before it.

Tests used:
[1] = molecular target: GST-tagged lamprey γ-synuclein NTD (lamprey); assay: pull-down; direct binding: 50-100 μg GST-tagged protein as bait, 100 μg purified recombinant bovine Hsc70 or truncation, without nucleotides; Western blot, band intensity in AU
[2] = molecular target: GST-tagged lamprey γ-synuclein NTD (lamprey); assay: pull-down; 50-100 μg GST-tagged protein as bait, 1-5 mg rat brain extract in HKET buffer (25 mM HEPES K+, 150 mM KCl, 1 mM EDTA, 1% Triton X-100, pH 7.4); bound proteins detected by Western blot, band intensity in AU
[3] = molecular target: GST-tagged human α-synuclein (full length, wild type) (human) (UniProt P37840); assay: pull-down; 50-100 μg GST-tagged protein as bait, 1-5 mg lamprey CNS (brain and spinal cord) extract in HKET buffer; bound Hsc70 detected by Western blot, band intensity in AU
[4] = molecular target: GST-tagged human α-synuclein NTD (a.a. 1-102) (human) (UniProt P37840); assay: as above

band intensity (AU) [1]: 62.8 AU
Substance: His-tagged recombinant bovine Hsc70 (from UniProt P19120 1-650) (natural protein)

band intensity (AU) [2]: 153 AU
Substance: Hsc70 from rat brain extracts (from UniProt P63018 1-646) (natural protein)

band intensity (AU) [3]: 106 AU | band intensity (AU) [4]: 154 AU
Substance: endogenous Hsc70 from lamprey brain and spinal cord extracts (natural protein)
